For one substance, stoichiometry N results are on record in PMC2742680.

This test addresses Galdieria sulphuraria sarcosine dimethylglycine methyltransferase (Galdieria sulphuraria). Briefly: SEC.

Turning to “Galdieria sulphuraria sarcosine dimethylglycine methyltransferase (enzyme)”, the stoichiometry N came to 2.
